The results in this text go back to paper PMC4552487.

The target of this assay is Parkin 80-465 (UniProt O60260). The assay can be described thus: AlphaScreen, competition with GST-Ubl (1-76). The note with it: reference: unphosphorylated Ubl (1-76); sites S65. (In Alpha technology, singlet oxygen from a donor bead excites a nearby acceptor bead.)

As to “Parkin Ubl domain, 1-76 (from UniProt O60260) Ubl (1-76) phosphorylated by TcPINK1, Mono-Q purified”, the “binding against the reference” value was “weaker”.
